According to patent publication US5747253:

Test system: c-Myc, P01106-1
Experiment: competition
Conditions: 2'-OMe; 50 uM pool vs myc PS site; FIG. 5 labels this pool SEQ ID NO:33

Chain of c-Myc, P01106-1 (P01106 16-454): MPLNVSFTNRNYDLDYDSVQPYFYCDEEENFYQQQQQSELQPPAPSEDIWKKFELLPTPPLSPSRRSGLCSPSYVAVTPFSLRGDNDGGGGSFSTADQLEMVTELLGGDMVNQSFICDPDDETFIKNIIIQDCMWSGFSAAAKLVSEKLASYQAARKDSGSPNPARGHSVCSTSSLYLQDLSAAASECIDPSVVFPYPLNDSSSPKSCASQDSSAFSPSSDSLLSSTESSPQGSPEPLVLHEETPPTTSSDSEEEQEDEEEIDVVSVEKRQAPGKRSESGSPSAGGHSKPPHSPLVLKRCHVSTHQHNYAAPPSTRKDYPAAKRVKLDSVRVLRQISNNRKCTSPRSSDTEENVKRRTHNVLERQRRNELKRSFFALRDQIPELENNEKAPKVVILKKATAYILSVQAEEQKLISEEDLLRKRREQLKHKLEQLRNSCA

**Q.** GCGNNNCNNNNNNCGC [2'-OMe pool X=C] was tested. Which binding signal did it give?
**A.** 50 % inhibition
